From patent US20140087995A1 (published 2014)
Numbered stars: 1 amine (or outer) side, 2 acyl side, 3 side chain; on linkers, the order of the positions; unused ones are H or OH. Bridge positions count the residues as written; N and C are the ends. Side chains are listed from the residue outwards. Ends that are not written are not given here. * marks the point of attachment. C20 diacid = O=C(O)CCCCCCCCCCCCCCCCCCC(=O)*; γGlu = O=C(O)[C@H](CCC(=O)[*:2])N[*:1]

T1: human calcitonin receptor (human, UniProt P30988 25-474)
T1 construct: whole, on cells; Membranes prepared from a stably transfected BHK cell line (Assay VII); also called hCTR; hCT
T1 sequence (looked up): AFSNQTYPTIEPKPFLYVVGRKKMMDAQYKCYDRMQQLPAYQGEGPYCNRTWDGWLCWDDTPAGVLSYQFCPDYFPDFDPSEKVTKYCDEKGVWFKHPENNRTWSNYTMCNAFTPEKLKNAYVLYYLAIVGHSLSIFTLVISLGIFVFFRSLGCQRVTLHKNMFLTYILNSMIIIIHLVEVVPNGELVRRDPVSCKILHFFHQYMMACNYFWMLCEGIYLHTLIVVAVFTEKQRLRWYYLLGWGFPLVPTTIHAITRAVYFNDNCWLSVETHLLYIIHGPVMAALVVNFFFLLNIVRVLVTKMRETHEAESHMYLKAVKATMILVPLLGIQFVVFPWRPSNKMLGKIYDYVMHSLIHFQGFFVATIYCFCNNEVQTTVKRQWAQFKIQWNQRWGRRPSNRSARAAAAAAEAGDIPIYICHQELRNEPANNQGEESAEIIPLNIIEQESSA

T2: rat calcitonin receptor (rat, UniProt P32214 25-516)
T2 construct: whole, on cells; Membranes prepared from transiently transfected BHK tk'ts 13 cells (Assay VIII); also called rCTR; rCT
T2 sequence (looked up): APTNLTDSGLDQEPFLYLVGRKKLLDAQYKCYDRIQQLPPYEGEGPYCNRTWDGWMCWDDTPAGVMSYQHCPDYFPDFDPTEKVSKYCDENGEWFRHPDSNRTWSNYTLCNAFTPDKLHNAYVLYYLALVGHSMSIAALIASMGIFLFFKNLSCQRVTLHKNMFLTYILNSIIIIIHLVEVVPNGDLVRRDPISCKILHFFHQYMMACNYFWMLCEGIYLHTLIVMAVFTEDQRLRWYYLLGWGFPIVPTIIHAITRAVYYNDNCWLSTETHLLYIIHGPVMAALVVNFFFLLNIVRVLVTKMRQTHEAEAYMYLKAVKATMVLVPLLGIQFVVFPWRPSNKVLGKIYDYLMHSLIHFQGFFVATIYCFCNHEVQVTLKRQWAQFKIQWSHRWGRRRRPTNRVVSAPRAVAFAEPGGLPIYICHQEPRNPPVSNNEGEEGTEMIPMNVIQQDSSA

T3: rat amylin receptor (rat calcitonin receptor + rat RAMP 3) (rat, UniProt P32214 25-516; Q9JJ73 23-147)
T3 construct: whole, on cells; Membranes prepared from transiently transfected BHK tk'ts 13 cells (Assay VI); also called rAmylin-R; rAmylin
T3 sequence (looked up) 1: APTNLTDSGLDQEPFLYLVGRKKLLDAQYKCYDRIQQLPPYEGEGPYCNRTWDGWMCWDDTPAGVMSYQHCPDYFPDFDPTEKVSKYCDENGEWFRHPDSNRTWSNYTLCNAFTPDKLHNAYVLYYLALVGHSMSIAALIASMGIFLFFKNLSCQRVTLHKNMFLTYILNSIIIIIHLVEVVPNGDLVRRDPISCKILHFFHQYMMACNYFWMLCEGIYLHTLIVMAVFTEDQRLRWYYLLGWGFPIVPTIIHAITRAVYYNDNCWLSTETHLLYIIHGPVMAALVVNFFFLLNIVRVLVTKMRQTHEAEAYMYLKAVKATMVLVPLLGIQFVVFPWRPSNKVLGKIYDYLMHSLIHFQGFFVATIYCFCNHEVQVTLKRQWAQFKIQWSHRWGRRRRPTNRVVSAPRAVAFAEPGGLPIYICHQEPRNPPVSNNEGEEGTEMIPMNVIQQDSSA
T3 sequence (looked up) 2: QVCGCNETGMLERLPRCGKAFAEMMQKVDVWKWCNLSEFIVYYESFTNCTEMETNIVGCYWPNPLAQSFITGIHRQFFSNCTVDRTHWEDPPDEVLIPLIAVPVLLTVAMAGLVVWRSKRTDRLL


Assays:
[1] = molecular target: T1, human calcitonin receptor; assay: ratio of binding IC50s: human calcitonin receptor / human amylin receptor (reference)
Method in brief: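 Membranes (35 ng/μL final) + SPA beads, 50 mM Hepes pH 7.4 buffer with 1 mM CaCl2, 5 mM MgCl₂, 0.1% OA, 0.02% Tween20; 120 min, 25° C, shaking; centrifuged, counted; IC₅₀ by one-site binding competition.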

rat calcitonin receptor [2] = molecular target: T2, rat calcitonin receptor; assay: ratio of binding IC50s: rat calcitonin receptor / rat amylin receptor (reference)
[3] = molecular target: T3, rat amylin receptor (rat calcitonin …); assay: SPA competition vs 125I-rat amylin, membranes of BHK cells with rat calcitonin receptor + rat RAMP3 (Assay VI)
rat calcitonin receptor [4] = molecular target: T2, rat calcitonin receptor; assay: SPA competition vs 125I-calcitonin, membranes of BHK cells with rat calcitonin receptor (Assay VIII)

| Ratio hCT/hAmylin binding [1] | Ratio rCT/rAmylin binding (rat calcitonin receptor [2]) | IC50 [3] | IC50 (rat calcitonin receptor [4]) | Binder |
| --- | --- | --- | --- | --- |
| 91.8 | 46.5 | 3.14 nM | 146 nM | K([γGlu-C20 diacid])CNTATCATQRLAHFLRHSSPNFGAIPSSTNVGRNTY-NH2 (disulfide 2-7; N-terminus assumed; SMILES CC[C@H](C)[C@H](NC(=O)[C@H](C)NC(=O)CNC(=O)[C@H](Cc1ccccc1)NC(=O)[C@H](CC(N)=O)NC(=O)[C@@H]1CCCN1C(=O)[C@H](CO)NC(=O)[C@H](CO)NC(=O)[C@H](Cc1c[nH]cn1)NC(=O)[C@H](CCCNC(=N)N)NC(=O)[C@H](CC(C)C)NC(=O)[C@H](Cc1ccccc1)NC(=O)[C@H](Cc1c[nH]cn1)NC(=O)[C@H](C)NC(=O)[C@H](CC(C)C)NC(=O)[C@H](CCCNC(=N)N)NC(=O)[C@H](CCC(N)=O)NC(=O)[C@@H](NC(=O)[C@H](C)NC(=O)[C@@H]1CSSC[C@H](NC(=O)[C@@H](N)CCCCNC(=O)CC[C@H](NC(=O)CCCCCCCCCCCCCCCCCCC(=O)O)C(=O)O)C(=O)N[C@@H](CC(N)=O)C(=O)N[C@@H]([C@@H](C)O)C(=O)N[C@@H](C)C(=O)N[C@@H]([C@@H](C)O)C(=O)N1)[C@@H](C)O)C(=O)N1CCC[C@H]1C(=O)N[C@@H](CO)C(=O)N[C@@H](CO)C(=O)N[C@H](C(=O)N[C@@H](CC(N)=O)C(=O)N[C@H](C(=O)NCC(=O)N[C@@H](CCCNC(=N)N)C(=O)N[C@@H](CC(N)=O)C(=O)N[C@H](C(=O)N[C@@H](Cc1ccc(O)cc1)C(N)=O)[C@@H](C)O)C(C)C)[C@@H](C)O, Analogue of human amylin; also called compound 85) |
| 118 | 137 | 1.5 nM | 205 nM | K([γGlu-C20 diacid])CNTATCATQRLANFLRHSSPNFGAIPSSTNVGHNTY-NH2 (disulfide 2-7; N-terminus assumed; SMILES CC[C@H](C)[C@H](NC(=O)[C@H](C)NC(=O)CNC(=O)[C@H](Cc1ccccc1)NC(=O)[C@H](CC(N)=O)NC(=O)[C@@H]1CCCN1C(=O)[C@H](CO)NC(=O)[C@H](CO)NC(=O)[C@H](Cc1c[nH]cn1)NC(=O)[C@H](CCCNC(=N)N)NC(=O)[C@H](CC(C)C)NC(=O)[C@H](Cc1ccccc1)NC(=O)[C@H](CC(N)=O)NC(=O)[C@H](C)NC(=O)[C@H](CC(C)C)NC(=O)[C@H](CCCNC(=N)N)NC(=O)[C@H](CCC(N)=O)NC(=O)[C@@H](NC(=O)[C@H](C)NC(=O)[C@@H]1CSSC[C@H](NC(=O)[C@@H](N)CCCCNC(=O)CC[C@H](NC(=O)CCCCCCCCCCCCCCCCCCC(=O)O)C(=O)O)C(=O)N[C@@H](CC(N)=O)C(=O)N[C@@H]([C@@H](C)O)C(=O)N[C@@H](C)C(=O)N[C@@H]([C@@H](C)O)C(=O)N1)[C@@H](C)O)C(=O)N1CCC[C@H]1C(=O)N[C@@H](CO)C(=O)N[C@@H](CO)C(=O)N[C@H](C(=O)N[C@@H](CC(N)=O)C(=O)N[C@H](C(=O)NCC(=O)N[C@@H](Cc1c[nH]cn1)C(=O)N[C@@H](CC(N)=O)C(=O)N[C@H](C(=O)N[C@@H](Cc1ccc(O)cc1)C(N)=O)[C@@H](C)O)C(C)C)[C@@H](C)O, Analogue of human amylin; also called compound 77) [N^ε1-[(4S)-4-carboxy-4-(19-carboxynonadecanoylamino)butanoyl]-[Arg17,Pro21,Pro27,His34]-h-amylin] |
| 87.2 | 42.9 | 1.42 nM | 61.1 nM | K([γGlu-C20 diacid])CNTATCATQRLAHFLRHSSPNFGAIPSSTNVGHNTY-NH2 (disulfide 2-7; N-terminus assumed; SMILES CC[C@H](C)[C@H](NC(=O)[C@H](C)NC(=O)CNC(=O)[C@H](Cc1ccccc1)NC(=O)[C@H](CC(N)=O)NC(=O)[C@@H]1CCCN1C(=O)[C@H](CO)NC(=O)[C@H](CO)NC(=O)[C@H](Cc1c[nH]cn1)NC(=O)[C@H](CCCNC(=N)N)NC(=O)[C@H](CC(C)C)NC(=O)[C@H](Cc1ccccc1)NC(=O)[C@H](Cc1c[nH]cn1)NC(=O)[C@H](C)NC(=O)[C@H](CC(C)C)NC(=O)[C@H](CCCNC(=N)N)NC(=O)[C@H](CCC(N)=O)NC(=O)[C@@H](NC(=O)[C@H](C)NC(=O)[C@@H]1CSSC[C@H](NC(=O)[C@@H](N)CCCCNC(=O)CC[C@H](NC(=O)CCCCCCCCCCCCCCCCCCC(=O)O)C(=O)O)C(=O)N[C@@H](CC(N)=O)C(=O)N[C@@H]([C@@H](C)O)C(=O)N[C@@H](C)C(=O)N[C@@H]([C@@H](C)O)C(=O)N1)[C@@H](C)O)C(=O)N1CCC[C@H]1C(=O)N[C@@H](CO)C(=O)N[C@@H](CO)C(=O)N[C@H](C(=O)N[C@@H](CC(N)=O)C(=O)N[C@H](C(=O)NCC(=O)N[C@@H](Cc1c[nH]cn1)C(=O)N[C@@H](CC(N)=O)C(=O)N[C@H](C(=O)N[C@@H](Cc1ccc(O)cc1)C(N)=O)[C@@H](C)O)C(C)C)[C@@H](C)O, Analogue of human amylin; also called compound 81) |
